Experimental data taken from PMC2173498.

What was measured:
Test in all cases: SEC
[1] = target: IBB-nucleoplasmin (UniProt P52292)
[2] = target: M9-βgal (UniProt P09651)
[3] = target: Thyroglobulin-NLS
[4] = target: IBB-βgal (UniProt P52292)

Chain of WT importin β (Q14974 whole entry): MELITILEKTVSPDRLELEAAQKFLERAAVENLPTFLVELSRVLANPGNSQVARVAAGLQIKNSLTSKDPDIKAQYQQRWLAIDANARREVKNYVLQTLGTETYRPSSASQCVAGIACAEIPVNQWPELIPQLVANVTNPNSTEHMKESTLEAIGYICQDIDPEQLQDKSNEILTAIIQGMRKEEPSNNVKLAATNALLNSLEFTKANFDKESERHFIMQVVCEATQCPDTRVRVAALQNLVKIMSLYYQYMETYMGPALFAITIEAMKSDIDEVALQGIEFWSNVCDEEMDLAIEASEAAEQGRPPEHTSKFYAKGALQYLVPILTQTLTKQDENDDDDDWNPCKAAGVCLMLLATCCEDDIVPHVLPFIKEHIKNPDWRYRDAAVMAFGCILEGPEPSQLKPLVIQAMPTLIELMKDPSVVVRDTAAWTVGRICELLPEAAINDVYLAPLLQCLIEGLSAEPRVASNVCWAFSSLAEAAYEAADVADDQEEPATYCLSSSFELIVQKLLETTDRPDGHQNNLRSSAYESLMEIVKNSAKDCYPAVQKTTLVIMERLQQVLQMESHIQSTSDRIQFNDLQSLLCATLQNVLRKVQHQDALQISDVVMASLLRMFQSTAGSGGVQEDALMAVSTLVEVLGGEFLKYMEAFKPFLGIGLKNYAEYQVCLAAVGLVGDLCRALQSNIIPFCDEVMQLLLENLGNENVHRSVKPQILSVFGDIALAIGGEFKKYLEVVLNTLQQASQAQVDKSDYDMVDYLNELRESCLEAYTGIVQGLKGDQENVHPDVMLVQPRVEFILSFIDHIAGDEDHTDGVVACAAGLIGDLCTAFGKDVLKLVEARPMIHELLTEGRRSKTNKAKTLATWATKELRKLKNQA
Chain of WT transportin (Q92973 whole entry): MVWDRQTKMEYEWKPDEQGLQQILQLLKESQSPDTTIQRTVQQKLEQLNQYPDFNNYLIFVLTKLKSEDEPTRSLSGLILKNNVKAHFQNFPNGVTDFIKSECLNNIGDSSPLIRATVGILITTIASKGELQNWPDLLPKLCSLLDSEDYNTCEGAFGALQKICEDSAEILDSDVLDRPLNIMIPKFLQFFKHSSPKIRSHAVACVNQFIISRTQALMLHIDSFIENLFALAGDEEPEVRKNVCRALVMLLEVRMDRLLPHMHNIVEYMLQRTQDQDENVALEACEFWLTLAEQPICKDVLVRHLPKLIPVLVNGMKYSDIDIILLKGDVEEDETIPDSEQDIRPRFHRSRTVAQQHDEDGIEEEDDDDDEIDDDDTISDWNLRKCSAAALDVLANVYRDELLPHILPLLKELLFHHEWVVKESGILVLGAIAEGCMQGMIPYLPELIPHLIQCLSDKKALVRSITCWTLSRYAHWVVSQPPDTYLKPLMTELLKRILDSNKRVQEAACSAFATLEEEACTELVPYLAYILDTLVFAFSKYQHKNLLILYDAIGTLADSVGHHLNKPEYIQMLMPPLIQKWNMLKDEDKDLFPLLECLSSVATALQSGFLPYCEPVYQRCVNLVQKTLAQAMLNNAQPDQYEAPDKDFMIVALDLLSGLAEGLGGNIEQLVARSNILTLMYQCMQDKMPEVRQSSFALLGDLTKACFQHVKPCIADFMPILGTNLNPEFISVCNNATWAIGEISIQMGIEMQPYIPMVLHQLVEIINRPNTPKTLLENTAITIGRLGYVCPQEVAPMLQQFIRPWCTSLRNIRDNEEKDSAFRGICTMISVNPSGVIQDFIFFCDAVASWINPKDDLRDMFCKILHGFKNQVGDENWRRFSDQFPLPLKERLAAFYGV

## IBB-nucleoplasmin (from UniProt P52292 1-65; P05221 1-149)
[1]
  stoichiometry N: 10

## M9-βgal (from UniProt P09651-2 255-320)
[2]
  stoichiometry N: 4

## Thyroglobulin-NLS
[3]
  stoichiometry N: 2

## WT importin β (from UniProt Q14974 1-876) (natural protein)
[4]
  stoichiometry N (receptors per cargo): 4
[1]
  stoichiometry N (receptors per cargo): 5

## WT transportin (from UniProt Q92973 1-898) (natural protein)
[2]
  stoichiometry N (receptors per cargo): 4
